Measured values as given in patent publication US20070166719A1 (NEW ENGLAND BIOLABS, published 2007).

Molecular target: T1, R-M-CspCI endonuclease-methyltransferase subunit (Citrobacter species 2144 (NEB#1398))
T1 construct: also called large subunit; R-M-subunit
T1 chain: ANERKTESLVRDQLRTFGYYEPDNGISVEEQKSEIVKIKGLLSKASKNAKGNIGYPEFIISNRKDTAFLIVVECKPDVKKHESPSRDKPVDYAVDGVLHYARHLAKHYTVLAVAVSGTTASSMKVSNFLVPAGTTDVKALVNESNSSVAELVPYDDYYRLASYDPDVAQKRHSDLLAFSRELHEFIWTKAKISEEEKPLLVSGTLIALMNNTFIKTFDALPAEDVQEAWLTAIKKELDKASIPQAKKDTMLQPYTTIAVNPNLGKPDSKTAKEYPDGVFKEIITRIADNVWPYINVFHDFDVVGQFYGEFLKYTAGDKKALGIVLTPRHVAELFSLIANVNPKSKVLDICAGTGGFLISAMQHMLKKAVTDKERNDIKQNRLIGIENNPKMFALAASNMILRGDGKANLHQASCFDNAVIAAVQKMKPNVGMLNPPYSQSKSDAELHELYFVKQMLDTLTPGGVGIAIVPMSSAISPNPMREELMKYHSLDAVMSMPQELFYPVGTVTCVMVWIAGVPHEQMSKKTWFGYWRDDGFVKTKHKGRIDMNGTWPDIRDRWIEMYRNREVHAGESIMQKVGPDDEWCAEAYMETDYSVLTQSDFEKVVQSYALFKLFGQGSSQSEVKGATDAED
Test: HPLC of purified CspCI; molar ratio derived from the mass ratio 1:0.47

B1: CspCI specificity subunit (S-CspCI) (other)
chain: PKINDLFHLEYGHSLELNRLEQSTAADAVNFVGRAARNNGVTARVAPPPNLKPAAAGTISVALGGQGGAGVAFLQPRPYFCGRDVMVLTPKKHMTDQEKLWWVMCITANRFRFGFGRQANRTLKDLNLPAPQKTPSWVHTANPDAYQGVRSPASVHPVGTLAVSNWKAFILQDLFTIRKGQRLTKANMLPGTVPYIGASDTSNGVTAHIGQKPIHEGGTISVTYDGSIAEAFYQPSPFWASDAVNVLYPKGFTLTPATALFICAIIRMEKYRFNYGRKWHLERMRETVIRLPATATGAPDWDFMEKYIKTLPYSSQLQ
notes: also called small subunit; S-subunit
With B1 the “molar ratio (70 kDa : 35 kDa protein in the purified enzyme)” value was 1.06 mol small subunit per mol large subunit.
